Reference: US20200291109A1, “Composition to induce bone marrow stem cell mobilization” (Universitá degli Studi di Padova, priority 2014, published 2020)

B1: G-CSF: granulocyte colony stimulating factor, growth factor used for stem cell mobilization (protein, UniProt P09919 31-207, looked up)
Granulocyte …: TPLGPASSLPQSFLLKCLEQVRKIQGDGAALQEKLVSECATYKLCHPEELVLLGHSLGIPWAPLSSCPSQALQLAGCLSQLHSGLFLYQGLLQALEGISPELGPTLDTLQLDVADFATTIWQQMEELGMAPALQPTQGAMPAFASAFQRRAGGVLVASHLQSFLEVSYRVLRHLAQP
B2: oncostatin M (OSM): 28-kDa glycoprotein of cytokine family, macrophage derived factor (protein)
chain: AAIGSCSKEYRVLLGQLQKQTDLMQDTSRLLDPYIRIQGLDVPKLREHCRERPGAFPSEETLRGLGRRGFLQTLNATLGCVLHRLADLEQRLPKAQDLERSGLNIEDLEKLQMARPNILGLRNNIYCMAQLLDNSDTAEPTKAGRGASQPPTPTPASDAFQRKLEGCRFLHGYHRFMHSVGRVFSKWGESPNRSRR

Legend:
LKS stem cells = assay: G-CSF alone induced mobilization of LKS stem cells in diabetic mice; format: in vivo; details: G-CSF only
Text: In order to obtain in vivo validation of such mechanism, inhibition of oncostatin M (OSM) has been carried out in mice induced with diabetes by injecting streptozotocin as mentioned above and analyzed after 4 weeks from hyperglycemia development, by intraperitoneal injection of a polyclonal neutralizing antibody (AF-495-NA, R&D Systems) specific for murine oncostatin M (OSM), before beginning a marrow stimulation cycle by a subcutaneous injection of G-CSF ([…] for 4 consecutive days).

[1] = tested on: SDF-1α/CXCL12 expression in human mesenchymal stem cells; assay: Induction of SDF-1α/CXCL12 gene expression in human mesenchymal stem cells by oncostatin M (qPCR); format: cell-based; details: increasing concentrations of OSM
Protocol: Therefore, the effect of such media on the gene expression of SDF-1α/CXCL12 in human (stromal) mesenchymal stem cells by qPCR was evaluated (primers forward ATGCCCATGCCGATTCTT [SEQ ID NO. 5]; reverse […] [SEQ ID NO. 6]; reference sequence NCBI NM_000609.6).

Molecule	mobilization of LKS stem cells (LKS stem cells)	expression of SDF-1α/CXCL12 [1]
B1	not able to induce mobilization	
B2		progressively increase the expression
